For two substances, Percent Activity (as determined by BSM binding) results are on record in patent US6071515.

The target of the experiment is Bovine submaxillary mucin (BSM) (bovine). Description: binding of the 125I-labelled protein to BSM.

For the substance “CC49, murine monoclonal antibody specific to TAG-72 (ATCC No. HB9459)”, the Percent Activity (as determined by BSM binding) worked out at 96 percent.

Substance ChCC49 Fab gave a Percent Activity (as determined by BSM binding) of 64 percent.
